Laboratory results reported in IntAct's records for PubMed 8940095.

Target: pdli5_rat Pdlim5 (UniProt Q62920)
Sequence (Q62920 whole entry): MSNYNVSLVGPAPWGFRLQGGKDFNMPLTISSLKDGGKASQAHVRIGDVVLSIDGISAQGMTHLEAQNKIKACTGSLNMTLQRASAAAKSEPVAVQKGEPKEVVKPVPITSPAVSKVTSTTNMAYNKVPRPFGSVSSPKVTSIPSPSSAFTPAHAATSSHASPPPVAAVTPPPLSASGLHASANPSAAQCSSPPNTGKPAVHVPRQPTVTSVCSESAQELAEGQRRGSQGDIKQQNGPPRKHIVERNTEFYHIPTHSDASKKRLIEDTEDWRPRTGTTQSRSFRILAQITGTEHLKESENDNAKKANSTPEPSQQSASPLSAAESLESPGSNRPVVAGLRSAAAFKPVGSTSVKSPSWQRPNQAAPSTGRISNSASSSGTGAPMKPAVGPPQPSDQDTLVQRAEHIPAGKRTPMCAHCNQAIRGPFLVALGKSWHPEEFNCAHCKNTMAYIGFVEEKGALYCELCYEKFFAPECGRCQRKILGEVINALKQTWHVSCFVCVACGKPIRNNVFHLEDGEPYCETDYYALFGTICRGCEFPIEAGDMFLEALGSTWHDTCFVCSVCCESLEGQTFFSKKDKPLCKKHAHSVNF

Sequence of Protein kinase C beta type (Rattus norvegicus (Rat)), P68403-1 K371M (P68403 whole entry K371M): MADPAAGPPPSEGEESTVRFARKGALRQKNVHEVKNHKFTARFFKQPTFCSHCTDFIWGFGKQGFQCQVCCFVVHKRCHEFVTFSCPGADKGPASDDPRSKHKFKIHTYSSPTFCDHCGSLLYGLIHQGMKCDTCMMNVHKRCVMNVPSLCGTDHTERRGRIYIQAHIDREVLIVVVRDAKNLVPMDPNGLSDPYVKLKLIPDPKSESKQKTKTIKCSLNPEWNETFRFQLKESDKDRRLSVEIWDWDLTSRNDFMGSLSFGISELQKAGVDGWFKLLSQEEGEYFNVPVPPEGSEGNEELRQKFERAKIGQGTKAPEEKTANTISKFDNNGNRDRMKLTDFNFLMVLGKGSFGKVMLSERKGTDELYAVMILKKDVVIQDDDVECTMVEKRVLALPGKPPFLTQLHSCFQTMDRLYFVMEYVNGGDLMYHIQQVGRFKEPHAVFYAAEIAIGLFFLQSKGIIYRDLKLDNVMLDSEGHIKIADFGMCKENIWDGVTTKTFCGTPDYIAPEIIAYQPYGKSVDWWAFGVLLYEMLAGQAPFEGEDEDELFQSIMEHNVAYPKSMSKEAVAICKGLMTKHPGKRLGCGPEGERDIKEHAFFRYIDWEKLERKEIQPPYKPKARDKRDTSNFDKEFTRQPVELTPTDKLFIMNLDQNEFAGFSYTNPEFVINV

effect of a mutation on the interaction: with no effect
Substance: Protein kinase C beta type (Rattus norvegicus (Rat)), P68403-1 K371M
